# According to publication PMC11408249, “Non-invasive in vivo imaging of changes in Collagen III turnover in myocardial fibrosis” (npj Imaging, 2024):
# Residues, ends and D or L forms follow the SMILES beside them. *: point of attachment. DOTA = O=C(O)CN1CCN(CC(=O)O)CCN(CC(=O)*)CCN(CC(=O)O)CC1
# Design: species or system mice
# Details: mouse, in vivo, iv
# Method: Gallium-68 (^68Ga) was eluted from the generators onsite at the time of the experiments. Radiolabelling of the respective DOTAMA-CBP compound was performed as follows: DOTAMA-CBPs were dissolved in water (Baxter water for irrigation) to a final concentration 4 mg/mL. In an Eppendorf, 25 µL of the DOTAMA-CBP solution was added. Sodium acetate (30%NaOAc, 20 µL, pH 5) buffer was added to this solution followed by the addition of 200 µL ^68Ga (~100 MBq). The solution was then heated to 50 °C for 30 min. After the reaction was removed from heat, the pH was adjusted to pH 7 by adding sodium bicarbonate (1 M, 10 µL). Labelling efficiency was followed by radio thin-layer chromatography (TLC) and HPLC. Radio TLCs were performed using silica gel IBF-2 Baker plates, 10% NH4OAc 50:50 in MeOH with 5 µL of the sample added. For the HPLC, a C18 column was used (MeCN + 0.1% TFA and H2O + 0.1% TFA, gradient) with 10 µL of the sample measured.
# In vivo biodistribution imaging was carried out using a positron emission tomography/computed tomography (PET/CT) scanner (NanoPET/CT scanner; Mediso, Hungary. Male apolipoprotein E knockout (ApoE^−/−) were anesthetised with 4% isoflurane mixed with 1% medical oxygen and maintained at 2% isoflurane for the PET/CT experiment. Mice were injected intravenously (i.v.) with either ^68Ga-DOTAMA-CBP1 or ^68Ga-DOTAMA-CBP2 (12MBq/mouse for both probes). To verify anatomical structures, CT images were obtained after the PET imaging with a 55 kVp voltage. PET images were acquired continuously up to 90 min post-injection with a 256 × 256 matrix size and a resolution of 1 mm/pixel. PET and CT images were reconstructed using the manufacturer software with a voxel size of 0.4 mm and analysed with a VivoQuant 2.5 software (Invicro, Boston, MA, USA). The data acquired with the CBP1 and CBP2 imaging probes were reconstructed in 15-minute bins up to 90 min. The PET/CT images were merged using the software’s automated fusion function. Additionally, the software was used for region-of-Interest (ROI) analysis and results were reported as %ID/g for each organ. Following the in vivo PET/CT imaging, the animals were euthanised and tissues extracted for ex vivo gamma counting (1282 CompuGamma gamma counting, LKB Wallac, Finland).
SMILES,route of elimination (in words),time within which most of the probe is eliminated from the blood (first phase clearance) [min],unspecific uptake in tissues (in words)
"CSCC[C@H](NC(=O)[C@H](CCCNC(=N)N)NC(=O)[C@H](CC(C)C)NC(=O)[C@@H]1CCCN1C(=O)[C@H](Cc1ccccc1)NC(=O)[C@H](CCC(=O)O)NC(=O)[C@@H](NC(=O)CN1CCN(CC(=O)O)CCN(CC(=O)O)CCN(CC(=O)O)CC1)[C@@H](C)O)C(=O)N[C@@H](CCCNC(=N)N)C(=O)N[C@@H](CC(=O)O)C(=O)N[C@@H](Cc1c[nH]c2ccccc12)C(=O)N[C@@H](CC(C)C)C(=O)N[C@@H](CCCCN)C(=O)N[C@@H](CC(N)=O)C(=O)O [^68Ga-DOTAMA-CBP2, metal not drawn] ({DOTA}-TEFPLRMRDWLKN-OH)",renal excretion,15 to 30,no significant unspecific uptake in tissues
"CC(C)[C@H](NC(=O)[C@H](CCC(=O)O)NC(=O)[C@H](CO)NC(=O)[C@H](CCCCN)NC(=O)[C@H](CCCNC(=N)N)NC(=O)[C@H](C)NC(=O)[C@H](CC(=O)O)NC(=O)CN1CCN(CC(=O)O)CCN(CC(=O)O)CCN(CC(=O)O)CC1)C(=O)N[C@@H](CCC(N)=O)C(=O)N[C@@H](CCCCN)C(=O)O [^68Ga-DOTAMA-CBP1, metal not drawn] ({DOTA}-DARKSEVQK-OH)",renal excretion,15 to 30,no significant unspecific uptake in tissues
